Assay results from the DeepSol protein solubility set.

Assay: soluble on expression in E. coli; label from the status in PepcDB or PDB records

Sequence | soluble on expression in E. coli
MGSDKIHHHHHHMKIGFLGFGKSNRSLLKYLLNHQEAKFFVSEAKTLDGETKKFLEEHSVEYEEGGHTEKLLDCDVVYVSPGIKPDTSMIELLSSRGVKLSTELQFFLDNVDPKKVVGITGTDGKSTATALMYHVLSGRGFKTFLGGNFGTPAVEALEGEYDYYVLEMSSFQLFWSERPYLSNFLVLNISEDHLDWHSSFKEYVDSKLKPAFLQTEGDLFVYNKHIERLRNLEGVRSRKIPFWTDENFATEKELIVRGKKYTLPGNYPYQMRENILAVSVLYMEMFNELESFLELLRDFKPLPHRMEYLGQIDGRHFYNDSKATSTHAVLGALSNFDKVVLIMCGIGKKENYSLFVEKASPKLKHLIMFGEISKELAPFVGKIPHSIVENMEEAFEKAMEVSEKGDVILLSPGGASFDMYENYAKRGEHFREIFKRHGGDEV | not soluble
MGSSHHHHHHSSGRENLYFQGMVKNYVLDTNVLIHDPDSIFSFEDNNVIIPLPVLEELDKLKREHGSVGKNAREVIRHLDELRKKGNLRKGIPLENGGILRVMVLEREVENVPRFLHERYVDNIILAYVIELMNREKIPTILVSKDINLRVKADSLGIPAQDYLTDRSELETMPKGYVEIDDEELKKQLKVKVTVEKKLDLLDNFYIDLGGVYGKYRKGKVLRVEPFETMGISPRNREQIFSMDALLDDEIPLVFLVGIAGTGKTLLALACGLYKVLVEKRYKKLIVTRPTVPMGRDIGYLPGELEKKMKPWLQPIMDNLELISSLSGLKIKELEKQEILEVEAISFIRGRSIPKQFIIIDEAQNLTPHEVKTILTRVGEDTKIVLVGDPYQIDTPYLDKDTNGLVYAALKLLESDLSAVIKLEKGERSRLATIAAELL | soluble
NSDSMILVTVNPKTKKTTMTSLERDTLTTLSGPKNNEMNGVEAKLNAAYAAGGAQMAIMTVQDLLNITIDNYVQINMQGLIDLVNAVGGITVTNEFDFPISIAENEPEYQATVAPGTHKINGEQALVYARMRYDDPEGDYGRQKRQREVIQKVLKKILA | not soluble
RSFLPPFNEGSFTINVSTLPGISLEESDRMGRMAEEILLSVPEVQTVGRKTGRAELDEHALGVNVSEIEVPFVLKDRSKDEVLADIREKLKVLPGVNIEIGQPISHRIDAMLSGTRANIAIKLFGPDLNRLFAIGNQIKTSVHDVKGVADLNVEQQVERPQLKIVPKREMLAKYGLTPASFAEIVNVMLAGEVVSQVYEGNRSFDLSLKVNDESRESADRIRDLIIDAGGRKIPFAYVADIVSASGPNTINRENVSRKIVVSANVAGRDLRSVVNDIQERIDADITLPEGYHIEYGGQFESEQAASRT | not soluble
MSDVPHLRFPEFSGEWEEHTLSEYLEFKNGLNPDAKRIGSGLPFISVMDILSEGVINYDNIRGKVNATEKEIECFGVKDGDLLFQRSSETLEDVGRANVYMDNRTAIYGGFVIRGRKIGNYDPLFFKYLLATPLARKRTCRMGAGAQHFNIGQEGLSKISLYFPSIEEQRKIAEFLSLIDERIATQNKIIEDLKKLKSAISLNVLHSDKWEQFKIKDIAQIGRGRVISSIEIGQQKSPTYPVYSSQTSNDGIMGYLDDYMFEGEYISWTTDGANAGTVFYRNGKFNCTNVCGLLKLRKEFDTHFVSLVLAEATKKYVSINLANPKLMNNTMGNIQIRLPKLEEQKRISIVFRVLQRLWTVHNSLLTEYTKQEQYLLSQMFILEHHHHHH | not soluble
MAHHHHHHMGRLEIRVCGARNVANVQRVGKPDPYVKVKLGNSKKSQIKYKTHVAENCLNPVWNELFKFQVADYDSMQVVFELWNDNVIVDDLLGSYSLSLNGLTRGVVIDTWVLLEGTKGSSSELHLRVLAVDFGRDPGPGDRLTLSLEGDTMMPSTGQTYRPPKNYVPPTQGIVLQSYPPAPLGPPPPVVYSPSAAPRPQVQYGYVTPPQPQRYACGAPPPPPQQPPSQGYGYGAVQAPQNYSYGAPPPPQPMYGAPQLPQCLPYAAGPPPPQMYGPPPPQRRPVQMAYGIPPDM | not soluble
GPSDMYVHVGNLIYRNLHLFNSEMHESILVSYSSDLIIYRTNTVGDDYIPSCDCTQATYYCKHKNRYFPITVTSHDWYEIQESEYYPKHIQYNLLIGEGPCEPGDCGGKLLCKHGVIGIVTAGGDNHVAFIDLRHFHCAEEQ | soluble
MSVLDISIIIANYNTEEFLRNCLNSIKSTVKNVKYEVIVTDNNSKDDSVTMIKNEFPWVKLIESKINGGFAYANNLAIKESSGKYIFLLNTDTVLLKDVIEKMVNYMDENKDVGLLGPKLLNRDMSHQTSVSGFPSFKREFYHIYKLKNILKIPILKKIIVAMSGKIGSKDVEQYMMNFKSIDEPREVQVLVGAALLVRRNVIDKIGMLDERYFMYYEEIDFCYQANKAGFKAVYYPNGEIIHYIGQAATKSRILEHHHHHH | soluble
MKYTQSFCFVSVIVLSSSVHLHGQNNKMNVLLIIADDMRPELGCYGIEDIVTPRLDSLARYATVFQNAYCNIPVSGASRASLFTGMYPRYPNRFTAFDASAEKDCPEALSLPECFKKNGYYVVSNGKVFHNITDHADSWSEAPWRVHPDGYGKDWAEYNKWELWQNEESSRYVHPKTLRGPFCESADVADTTYIDGRVAQKTIADLRRLHKKEKPFFLACGFWKPHLPFNAPKKYWDLYRREEIHLAQNPYRPKALPKQVTSSGEIRGYGKFVTTKDETFQREAKHGYYACVSYIDAQIGLILDELDRLGLSENTIVVILGDHGWHLGEHGFWGKHNLMNHATRAPLIVRVPHCRGGKAKGIVEFVDIYPTLCELCGVPMPKDQLQGKSFVPILQDSGKKTKQYAFIQWKGGYNIVSEQYSSTIWLQGDSVVARMIFDRQLDASENENKVHCPYLSRERDKLEAQIKIRKSQLLEHHHHHH | not soluble
GFKVIMVTDVGGLGDKSFNDGTWAGIKQAAEELGIEAKVIQSYEQSDYIPNLSKAAEEADLVFAVGFMMTNDLFKVAKQYPDTYFVGIDITPPEGQILPNVLTFTFKEQEAAFLVGYVAAAMTKTGMVGFVGGIPIPPVERFRYGYEAGIKTYSVLHKKNVKILRGYTQDFEDPKKGKDLAMSQFAEGADIVFHASGACGNGVIEAAREKFSALAGSDKLVDLIDYYTTNGKGFFAIGVDMDQDYMAPGAVLTSAMKRVD | soluble
MKINNLVDLHCHILPAIDDGSPSLEASLELARQAVADGIRYILATPHHMDRHYLNHAGDVVAAVEAFQAELDVNDIPLTIFPGQEVHLNGQLMEKVDDLLSIDTGRHYLLLELPHEMVPSYLDEMIFQLSCEGITPVIAHPERNAQIIAEPQRLYKLAEDGVLAQVTATSLVGTFGEQVQRTAKEFVKCGLVQVVASDAHTLKNRGFAMTKAYQVLNEMDSKYPERFATNARDLLNGEQIEMGQIEIPRKQRKHWLF | not soluble
MAHHHHHHMDHQDLKPVIWHKTEKKTKPKDIHEARKLGIDVEVEKKYFGGKNKSSKGNLIIENKAKIEQETENFKIDRVTPAFSRALQQARISKKLTQAQLARLVNESESVIKEYENGKAIPNNVIIQKLNKVLGVNLPSPKKK | soluble
MPESVAVTGGNGRIGKHVLDHLTTAGYRTVNLSRGKCDEAHSDAYIKTDLLDAGELYGALAKSDADTVVHLGMIPTPDQTPGYRTYESNVMSSYHVLEAAGELGIDTVALASSFSAIGGGFEPDLITVDYLPIDEDHRLTPSNPYAMGKQTLEIAADGFARRSTDAPETITSLRFPWVVDDDLAQETFVEADRTLAGLRNSDHFHTQRNTLCGYVHVTDAVALVEAAIEASFAGHERLWVSAPDTSAETPSAELAAELYSDADYRGQTGDDGSPYTALIDTTKAERLLGWEPTWNWRQLA | not soluble
MHCALLYSGGKDSTLAALLLDPFYDVTLVSGSFGVRDTDPAQESATAVGFDHVTVDLDPDVAHDAVKQMFDDGYPRNGIQRVHEHAVETVARADWVADADGLGTLDAVADGTRRDDRVPTVDRPLAQSIEDRFDVDYLAPLAGIGRGAIDAMAADRLVVESGPSAEIPKADYEVELRALLRKRYGEGAVADVFPEHTQSRVQGLR | not soluble
MAGAKHIIDTSFLTQLDRYAIPLSRRVTAVHTGSHQSTRTGAGLDIIDHRKYNQGDSLKRIDWNLYARTEKLYIRRFEEDKNLNMVILLDASSSMLFPDNTPNKFEYAATVAAGVSYIVMKHNDVYTIATFADDVDYTKSHKGRDDFLRTIDNLTQIPVSGTTKLADCADSIYPRIKSKSMVLIMSDFLDNLDSVQKAVNRLSRHELVIVHIYDENEINLPESVDGTVKFIDSETGEEISFTVGAGFKKEYASEYSKHMAELEKIAYDFKIPYFRVSIKNEPFDTVLKIIGEG | not soluble
